Common to all, as to test: flow cytometry, HEK293 cells
One assay deals with human CLDN18.2 (human, UniProt P56856 1-261).
In a further assay the target is T1, rat CLDN18.2 (rat, UniProt Q5I0E5 1-261).
T1 chain: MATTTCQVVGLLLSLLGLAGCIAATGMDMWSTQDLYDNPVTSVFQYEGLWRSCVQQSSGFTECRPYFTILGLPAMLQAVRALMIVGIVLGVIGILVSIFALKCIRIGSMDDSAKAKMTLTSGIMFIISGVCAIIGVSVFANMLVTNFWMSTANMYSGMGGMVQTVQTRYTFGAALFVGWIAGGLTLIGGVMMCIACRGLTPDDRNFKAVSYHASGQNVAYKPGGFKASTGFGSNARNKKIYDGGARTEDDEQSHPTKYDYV

For the next assay, the target named is T2, mouse CLDN18.2 (mouse, UniProt P56857 1-264).
T2 chain: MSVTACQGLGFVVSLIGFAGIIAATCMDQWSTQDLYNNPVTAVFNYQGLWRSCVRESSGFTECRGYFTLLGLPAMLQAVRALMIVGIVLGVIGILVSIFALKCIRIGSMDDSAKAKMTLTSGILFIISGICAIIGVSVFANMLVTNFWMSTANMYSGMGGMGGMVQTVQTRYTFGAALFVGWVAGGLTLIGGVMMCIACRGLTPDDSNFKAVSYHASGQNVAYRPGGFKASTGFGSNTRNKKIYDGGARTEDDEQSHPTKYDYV

Chain of human CLDN18.2 (P56856 other isoform, or with tags, fused parts or gaps): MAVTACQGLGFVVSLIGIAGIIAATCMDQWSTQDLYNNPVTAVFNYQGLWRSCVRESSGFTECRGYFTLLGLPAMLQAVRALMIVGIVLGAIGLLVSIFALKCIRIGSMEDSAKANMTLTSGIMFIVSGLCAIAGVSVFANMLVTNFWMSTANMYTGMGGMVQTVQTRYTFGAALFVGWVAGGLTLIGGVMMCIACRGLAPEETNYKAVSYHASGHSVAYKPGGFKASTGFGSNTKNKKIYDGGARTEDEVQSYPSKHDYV

B1: 008LYG_D08 IgG1 (antibody, V domains shown)
VH: QVQLVQSGAEVKKPGSSVKVSCKASGGTFSSYAISWVRQAPGQGLEWMGGIIPIFGTANYAQKFQGRVTITADESTSTAYMELSSLRSEDTAVYYCARGYQGMGVFDPWGQGTLVTVSS
VL: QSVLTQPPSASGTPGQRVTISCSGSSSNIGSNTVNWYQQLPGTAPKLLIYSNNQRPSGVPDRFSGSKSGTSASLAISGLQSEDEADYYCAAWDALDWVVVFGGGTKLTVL
With B1, the EC50 with human CLDN18.2 is 92.6 nM; with rat CLDN18.2, 99.1 nM; with mouse CLDN18.2 it was 81.3 nM.

B2: ZP1I16_D05 IgG1 (antibody, V domains shown)
VH: QVQLVQSGAEVKKPGSSVKVSCKASGGTFSSYAISWVRQAPGQGLEWMGGIIPIFGTANYAQKFQGRVTITADESTSTAYMELSSLRSEDTAVYYCARGFIRYGVFDYWGQGTLVTVSS
VL: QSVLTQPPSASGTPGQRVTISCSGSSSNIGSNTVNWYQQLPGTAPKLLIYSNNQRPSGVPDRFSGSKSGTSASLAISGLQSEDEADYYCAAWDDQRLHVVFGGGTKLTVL
Turning to B2, the EC50 in the assay with human CLDN18.2 was found to be 7.89 nM; with rat CLDN18.2, 11.8 nM.

B3: ZP1I18_B08 IgG1 (antibody, V domains shown)
VH: QVQLVQSGAEVKKPGSSVKVSCKASGGTFSSYAISWVRQAPGQGLEWMGGIIPIFGTANYAQKFQGRVTITADESTSTAYMELSSLRSEDTAVYYCARGFIRYGVFDYWGQGTLVTVSS
VL: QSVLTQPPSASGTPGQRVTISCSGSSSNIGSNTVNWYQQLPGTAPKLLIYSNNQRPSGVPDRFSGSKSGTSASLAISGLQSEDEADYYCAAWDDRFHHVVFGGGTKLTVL
For B3, the EC50 was determined as 13.1 nM with human CLDN18.2 and 10.5 nM with rat CLDN18.2.

B4: 008LY1_D04 IgG1 (antibody, V domains shown)
VH: QVQLVQSGAEVKKPGSSVKVSCKASGGTFSSYAISWVRQAPGQGLEWMGGIIPIFGTANYAQKFQGRVTITADESTSTAYMELSSLRSEDTAVYYCARGYVQYGYFDYWGQGTLVTVSS
VL: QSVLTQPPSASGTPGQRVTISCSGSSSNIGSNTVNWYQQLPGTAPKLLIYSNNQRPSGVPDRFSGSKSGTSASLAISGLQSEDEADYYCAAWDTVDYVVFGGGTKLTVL
In the assay with human CLDN18.2, B4 came in with a concentration giving a half-maximal response (EC50) of 9.07 nM.

B5: 008M0G_G03 IgG1 (antibody, V domains shown)
VH: QVQLVQSGAEVKKPGSSVKVSCKASGGTFSSYAISWVRQAPGQGLEWMGGIIPIFGTANYAQKFQGRVTITADESTSTAYMELSSLRSEDTAVYYCARGYPRYGVFDYWGQGTLVTVSS
VL: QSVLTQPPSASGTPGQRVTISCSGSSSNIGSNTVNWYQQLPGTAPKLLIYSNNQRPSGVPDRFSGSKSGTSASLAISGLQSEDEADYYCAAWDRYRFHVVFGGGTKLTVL
Take B5: the figures for the half-maximal effective concentration (EC50) with human CLDN18.2 and with rat CLDN18.2 were 8.55 nM and 11.1 nM, respectively.

Usually EC50 stands for the concentration at which the effect is half-maximal. Read a low EC50 as higher potency in that assay.

Values taken from patent US20240132587A1 (published 2024).
